# Measured values from PMC10277598.
# pKd: −log10 of the molar value.
# System: CsrA-His6
# Assay: EMSA
# Conditions: 10 mM MgCl2; apparent Kd, linear regression (54.7 nM in Fig. S5); 0.5 nM labeled RNA, 0-400 nM CsrA, 10 mM MgCl2, 100 mM KCl, 32.5 ng total yeast RNA, 20 mM DTT, 7.5% glycerol, 4 U SUPERasin, 37 C 30 min; native PAGE in 1X …
substance,measurement,value
hflK leader RNA (-86 to +48),pKd,7.26
